The record followed here is PMC8786824 (Scientific Reports, 2022).

For this experiment, the target named is MERS-CoV RBD (amino acids 367 to 588) of the spike glycoprotein (MERS-CoV, UniProt K9N5Q8). Nature of the experiment: crystal structure. The conditions noted are these: both partners purified.
Chain of MERS-CoV RBD (amino acids 367 to 588) of the spike glycoprotein (K9N5Q8 367-588): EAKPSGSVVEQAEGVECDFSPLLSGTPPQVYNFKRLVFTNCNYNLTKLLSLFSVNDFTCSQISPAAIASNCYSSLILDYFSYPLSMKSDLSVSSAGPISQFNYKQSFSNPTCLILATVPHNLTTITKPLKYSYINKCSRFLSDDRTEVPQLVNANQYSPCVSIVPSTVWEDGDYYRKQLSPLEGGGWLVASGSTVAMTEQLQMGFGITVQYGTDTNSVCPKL

B1: KNIH90-F1 antigen-binding fragment (Fab) (Fab, V domains shown)
VH: QVQLVQSGAEVKRPGSSVKVSCKTSGGTFNNNAINWVRQAPGQGLEWMGGIIPFFGIAKYAQKFQGRVTITADESTSTAYMELSSLRSEDTAVYYCARDLPRESSYGSGSYYTHYYAMDVWGQGTTVTVSS
VL: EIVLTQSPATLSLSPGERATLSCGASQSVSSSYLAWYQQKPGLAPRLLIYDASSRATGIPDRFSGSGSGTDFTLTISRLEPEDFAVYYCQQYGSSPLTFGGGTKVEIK
notes: also called KNIH90-F1 Fab; nAb KNIH90-F1
As to B1, the binding result is on record as “binds”.
